Test results reported in article PMC5742583, “A Functional Analysis on the Interspecies Interaction between Mouse LFA-1 and Human Intercellular Adhesion Molecule-1 at the Cell Level” (Frontiers in Immunology, 2017).

B1: mouse D1D5Fc: mouse Fc chimera containing the five extracellular domains of ICAM-1, R&D systems (protein)
chain: QVSIHPREAFLPQGGSVQVNCSSSCKEDLSLGLETQWLKDELESGPNWKLFELSEIGEDSSPLCFENCGTVQSSASATITVYSFPESVELRPLPAWQQVGKDLTLRCHVDGGAPRTQLSAVLLRGEEILSRQPVGGHPKDPKEITFTVLASRGDHGANFSCRTELDLRPQGLALFSNVSEARSLRTFDLPATIPKLDTPDLLEVGTQQKLFCSLEGLFPASEARIYLELGGQMPTQESTNSSDSVSATALVEVTEEFDRTLPLRCVLELADQILETQRTLTVYNFSAPVLTLSQLEVSEGSQVTVKCEAHSGSKVVLLSGVEPRPPTPQVQFTLNASSEDHKRSFFCSAALEVAGKFLFKNQTLELHVLYGPRLDETDCLGNWTWQEGSQQTLKCQAWGNPSPKMTCRRKADGALLPIGVVKSVKQEMNGTYVCHAFSSHGNVTRNVYLTVLYHSQNN
modifications: left off: Fc, end not stated, kept
notes: mouse Fc chimera containing the five extracellular domains of ICAM-1, R&D systems
B2: human D1D5Fc: human Fc chimera containing the five extracellular domains of ICAM-1, R&D systems (protein)
chain: QTSVSPSKVILPRGGSVLVTCSTSCDQPKLLGIETPLPKKELLLPGNNRKVYELSNVQEDSQPMCYSNCPDGQSTAKTFLTVYWTPERVELAPLPSWQPVGKNLTLRCQVEGGAPRANLTVVLLRGEKELKREPAVGEPAEVTTTVLVRRDHHGANFSCRTELDLRPQGLELFENTSAPYQLQTFVLPATPPQLVSPRVLEVDTQGTVVCSLDGLFPVSEAQVHLALGDQRLNPTVTYGNDSFSAKASVSVTAEDEGTQRLTCAVILGNQSQETLQTVTIYSFPAPNVILTKPEVSEGTEVTVKCEAHPRAKVTLNGVPAQPLGPRAQLLLKATPEDNGRSFSCSATLEVAGQLIHKNQTRELRVLYGPRLDERDCPGNWTWPENSQQTPMCQAWGNPLPELKCLKDGTFPLPIGESVTVTRDLEGTYLCRARSTQGEVTRKVTVNVLSPRYE
modifications: left off: Fc, end not stated, kept
notes: human Fc chimera containing the five extracellular domains of ICAM-1, R&D systems
B3: mouse ICAM-1: mouse ICAM-1, purified cell-free models of ref [29] (protein, UniProt P13597 28-537, looked up)
Intercellular adhesion …: QVSIHPREAFLPQGGSVQVNCSSSCKEDLSLGLETQWLKDELESGPNWKLFELSEIGEDSSPLCFENCGTVQSSASATITVYSFPESVELRPLPAWQQVGKDLTLRCHVDGGAPRTQLSAVLLRGEEILSRQPVGGHPKDPKEITFTVLASRGDHGANFSCRTELDLRPQGLALFSNVSEARSLRTFDLPATIPKLDTPDLLEVGTQQKLFCSLEGLFPASEARIYLELGGQMPTQESTNSSDSVSATALVEVTEEFDRTLPLRCVLELADQILETQRTLTVYNFSAPVLTLSQLEVSEGSQVTVKCEAHSGSKVVLLSGVEPRPPTPQVQFTLNASSEDHKRSFFCSAALEVAGKFLFKNQTLELHVLYGPRLDETDCLGNWTWQEGSQQTLKCQAWGNPSPKMTCRRKADGALLPIGVVKSVKQEMNGTYVCHAFSSHGNVTRNVYLTVLYHSQNNWTIIILVPVLLVIVGLVMAASYVYNRQRKIRIYKLQKAQEEAIKLKGQAPPP

Tests used:
[1] = test system: LFA-1 in the mouse T cell line EL4; experiment: Binding of ICAM-1 chimeras to LFA-1 on EL4 cells by flow cytometry; format: cell-based; conditions: mouse or human D1D5Fc 0.1 and 5 µg, 4°C 45 min; representative experiment
Protocol: The ability of human D1D2Fc and mouse and human D1D5Fc to recognize LFA-1 on mouse cells was analyzed by flow cytometry in the mouse thymic lymphoma cell line EL4. EL4 cells were incubated with different concentrations of human D1D2Fc, mouse and human D1D5Fc and human IgG1 control at 4°C for 45 min, washed twice with FACS buffer (PBS, 5% FCS, 0.1% NaN3), and then incubated with PE-conjugated goat anti-human IgG (Fcγ fragment specific; Jackson ImmunoResearch). After a washing step with FACS buffer, cells were analyzed by FACS using a FACS Calibur with CellQuest Pro software (BD). As control cells were incubated with an antibody against mouse CD11a (LFA-1) before adding human D1D2Fc.
Figure 2 Analysis of D1D2Fc binding to LFA-1 in EL4 cells by flow cytometry. (A) Different amounts of D1D2Fc (0.1, 1, and 10 µg) or human IgG1 control (10 µg) were incubated with EL4 cells. After washing out non-bound proteins, cells were incubated with PE-conjugated goat anti-human IgG Fcγ Ab and analyzed by flow cytometry. As a control EL4 cells were pretreated with a mouse LFA-1 blocking antibody (anti LFA-1) before incubating with 10 µg of D1D2Fc. Histograms show a representative experiment. […] After washing out non-bound proteins, cells were incubated with PE-conjugated goat anti-human IgG Fcγ Ab and analyzed by flow cytometry. […]

[2] = test system: gp33-pulsed EL4 cells killed by mouse Tc cells (ICAM-1/LFA-1); experiment: CD8+ T cell-mediated cytotoxicity on EL4; format: cell-based; conditions: ICAM-1 proteins, several (increasing) amounts, preincubation 45 min 37°C, effector:target 10:1, 4 h, annexin-V/7-AAD by FACS, three experiments by duplicate
mouse macrophages [3] = experiment: Mouse macrophage adhesion to mouse ICAM-1 (D1D5Fc)-coated plates; format: cell-based; conditions: plates coated with 5 µg mouse D1D5Fc; compared with human D1D5Fc; MTT
Protocol: (§1) Mouse macrophages were differentiated from mouse bone marrow as previously described ([37]). Briefly, bone marrow cells isolated from mouse femur were cultured in DMEM 10% FBS, 5% horse serum, and 30% supernatant of L929 cell culture as a source of M-CSF at a density of 10^6/cm^2 for 7–8 days. Macrophage differentiation was analyzed in the same way as human macrophages but using CD11b-APC and CD11c-PE (BD) antibodies.
(§2) Freshly isolated monocytes or differentiated macrophages were washed twice with PBS and incubated with trypsin (PAN Biotech) for 30 min at 37°C 5% CO2. After that, cells were scraped gently from the plate and resuspended at a final concentration of 10^6 cells/ml in complete RPMI medium. Subsequently, 10^5 macrophages and 5 × 10^5 monocytes were added to each well and incubated with several concentrations of human D1D2, D1D2Fc, D1D5Fc, mouse D1D5Fc, control human IgG1 20 µg or lovastatin 100 µM at 37°C 5% CO2 overnight. Next day, every well was washed twice with PBS, complete RPMI medium was added and the number or adherent remaining cells was quantified by a MTT colorimetric test ([38]). In some experiments, plates previously coated with human and mouse D1D5Fc were used. […]
(§3) Figure 7 Human intercellular adhesion molecule (ICAM)-1 blocks LFA-1-mediated mouse macrophage cell adhesion. […] (B) Macrophage phenotype was analyzed by flow cytometry testing the expression CD11b and CD11c. […]

mouse macrophages [4] = experiment: Mouse macrophage adhesion to human ICAM-1 (D1D5Fc)-coated plates; format: cell-based; conditions: plates coated with 5 µg human D1D5Fc; compared with mouse D1D5Fc; MTT
Protocol: as §1, §2, §3

human LFA-1 = conditions: purified cell-free models; ref [29]; cited from earlier work
Excerpt: Humanized mice are widely used as in vivo models to study the molecular basis of immune-related disorders as well as the efficacy of potential drugs ([23]). In these mice, the native gene of interest is replaced by its human homolog or the immune system is eliminated and reconstituted with its human counterpart. In addition, these mice can be used to enhance the engraftment of human cancer cells allowing in vivo studies of cancer progression and treatment. Here, a major obstacle to analyze human cell function, either healthy or transformed, and disease is the lack of species cross-reactivity o ...

Molecule	binding to EL4 cells [1]	inhibition of Tc cell-mediated cell death of EL4 [2]	inhibition of Tc cell-mediated cell death of EL4 ([2]; listed as mouse ICAM-1 (D1D5Fc))	adhesion of mouse macrophages to coated plate (mouse macrophages [3])	adhesion of mouse macrophages to coated plate (mouse macrophages [4])	binding to human LFA-1 (human LFA-1)
B1	bound to EL4 cells	similarly prevented cell death	inhibited cell death	similarly adhered	–	–
B2	binding of human ICAM-1 was higher than binding of mouse ICAM-1	–	–	–	similarly adhered	–
B3	–	–	–	–	–	binds human LFA-1
